Data from patent US20100080799.

B1: recombinant WSTF 1-345 construct (protein)
chain: MAPLLGRKPFPLVKPLPGEEPLFTIPHTQEAFRTREEYEARLERYSERIWTCKSTGSSQLTHKEAWEEEQEVAELLKEEFPAWYEKLVLEMVHHNTASLEKLVDTAWLEIMTKYAVGEECDFEVGKEKMLKVKIVKIHPLEKVDEEATEKKSDGACDSPSSDKENSSQIAQDHQKKETVVKEDEGRRESINDRARRSPRKLPTSLKKGERKWAPPKFLPHKYDVKLQNEDKIISNVPADSLIRTERPPNKEIVRYFIRHNALRAGTGENAPWVVEDELVKKYSLPSKFSDFLLDPYKYMTLNPSTKRKNTGSPDRKPSKKSKTDNSSLSSPLNPKLWCHVHLKKS
B2: co-expressed N-motif and C-motif of the WSTF kinase domain (protein)
chain 1: MAPLLGRKPFPLVKPLPGEEPLFTIPHTQEAFRTREEYEARLERYSERIWTCKSTGSSQLTHKEAWEEEQEVAELLKEEFPAWYEKLVLEMVHHNTASLEKLVDTAWLEIMTKYAVGEECDFEVGKEKMLKVKIVKIHPLEKVDEEATEKKSDGACDSPSSDKENSSQIAQDHQKKETVVKEDEGRRESINDRARRSPRKLPTSL
chain 2: GERKWAPPKFLPHKYDVKLQNEDKIISNVPADSLIRTERPPNKEIVRYFIRHNALRAGTGENAPWVVEDELVKKYSLPSKFSDFLLDPYKYMTLNPSTKRKNTGSPDRKPSKKSKTDNSSLSSPLNPKLWCHVHLKKS
B3: recombinant WSTF 1-359 C338A point mutant (protein)
chain: MAPLLGRKPFPLVKPLPGEEPLFTIPHTQEAFRTREEYEARLERYSERIWTCKSTGSSQLTHKEAWEEEQEVAELLKEEFPAWYEKLVLEMVHHNTASLEKLVDTAWLEIMTKYAVGEECDFEVGKEKMLKVKIVKIHPLEKVDEEATEKKSDGACDSPSSDKENSSQIAQDHQKKETVVKEDEGRRESINDRARRSPRKLPTSLKKGERKWAPPKFLPHKYDVKLQNEDKIISNVPADSLIRTERPPNKEIVRYFIRHNALRAGTGENAPWVVEDELVKKYSLPSKFSDFLLDPYKYMTLNPSTKRKNTGSPDRKPSKKSKTDNSSLSSPLNPKLWAHVHLKKSLSGSPLKVKNSKNS
B4: recombinant WSTF 1-340 construct (protein)
chain: MAPLLGRKPFPLVKPLPGEEPLFTIPHTQEAFRTREEYEARLERYSERIWTCKSTGSSQLTHKEAWEEEQEVAELLKEEFPAWYEKLVLEMVHHNTASLEKLVDTAWLEIMTKYAVGEECDFEVGKEKMLKVKIVKIHPLEKVDEEATEKKSDGACDSPSSDKENSSQIAQDHQKKETVVKEDEGRRESINDRARRSPRKLPTSLKKGERKWAPPKFLPHKYDVKLQNEDKIISNVPADSLIRTERPPNKEIVRYFIRHNALRAGTGENAPWVVEDELVKKYSLPSKFSDFLLDPYKYMTLNPSTKRKNTGSPDRKPSKKSKTDNSSLSSPLNPKLWCHV
B5: recombinant full length human WSTF (Flag-epitope-tagged at C terminus) (protein)
chain: MAPLLGRKPFPLVKPLPGEEPLFTIPHTQEAFRTREEYEARLERYSERIWTCKSTGSSQLTHKEAWEEEQEVAELLKEEFPAWYEKLVLEMVHHNTASLEKLVDTAWLEIMTKYAVGEECDFEVGKEKMLKVKIVKIHPLEKVDEEATEKKSDGACDSPSSDKENSSQIAQDHQKKETVVKEDEGRRESINDRARRSPRKLPTSLKKGERKWAPPKFLPHKYDVKLQNEDKIISNVPADSLIRTERPPNKEIVRYFIRHNALRAGTGENAPWVVEDELVKKYSLPSKFSDFLLDPYKYMTLNPSTKRKNTGSPDRKPSKKSKTDNSSLSSPLNPKLWCHVHLKKSLSGSPLKVKNSKNSKSPEEHLEEMMKMMSPNKLHTNFHIPKKGPPAKKPGKHSDKPLKAKGRSKGILNGQKSTGNSKSPKKGLKTPKTKMKQMTLLDMAKGTQKMTRAPRNSGGTPRTSSKPHKHLPPAALHLIAYYKENKDREDKRSALSCVISKTARLLSSEDRARLPEELRSLVQKRYELLEHKKRWASMSEEQRKEYLKKKREELKKKLKEKAKERREKEMLERLEKQKRYEDQELTGKNLPAFRLVDTPEGLPNTLFGDVAMVVEFLSCYSGLLLPDAQYPITAVSLMEALSADKGGFLYLNRVLVILLQTLLQDEIAEDYGELGMKLSEIPLTLHSVSELVRLCLRRSDVQEESEGSDTDDNKDSAAFEDNEVQDEFLEKLETSEFFELTSEEKLQILTALCHRILMTYSVQDHMETRQQMSAELWKERLAVLKEENDKKRAEKQKRKEMEAKNKENGKVENGLGKTDRKKEIVKFEPQVDTEAEDMISAVKSRRLLAIQAKKEREIQEREMKVKLERQAEEERIRKHKAAAEKAFQEGIAKAKLVMRRTPIGTDRNHNRYWLFSDEVPGLFIEKGWVHDSIDYRFNHHCKDHTVSGDEDYCPRSKKANLGKNASMNTQHGTATEVAVETTTPKQGQNLWFLCDSQKELDELLNCLHPQGIRESQLKERLEKRYQDIIHSIHLARKPNLGLKSCDGNQELLNFLRSDLIEVATRLQKGGLGYVEETSEFEARVISLEKLKDFGECVIALQASVIKKFLQGFMAPKQKRRKLQSEDSAKTEEVDEEKKMVEEAKVASALEKWKTAIREAQTFSRMHVLLGMLDACIKWDMSAENARCKVCRKKGEDDKLILCDECNKAFHLFCLRPALYEVPDGEWQCPACQPATARRNSRGRNYTEESASEDSEDDESDEEEEEEEEEEEEEDYEVAGLRLRPRKTIRGKHSVIPPAARSGRRPGKKPHSTRRSQPKAPPVDDAEVDELVLQTKRSSRRQSLELQKCEEILHKIVKYRFSWPFREPVTRDEAEDYYDVITHPMDFQTVQNKCSCGSYRSVQEFLTDMKQVFTNAEVYNCRGSHVLSCMVKTEQCLVALLHKHLPGHPYVRRKRKKFPDRLAEDEGDSEPEAVGQSRGRRQKK

Legend:
[1] = target: recombinant H2A.X (WT), N-terminal 6xHis tag
[2] = target: recombinant H2A.X Y142F, N-terminal 6xHis tag

Row | Protein | kinase activity (in vitro kinase assay) [1] | other results
1 | B1 | the 1-345 amino acid construct of WSTF had much more potent kinase activity (>50 fold) than the 1-340 construct | in vitro kinase assay [2]: its activity towards a Y142F mutant was much reduced
2 | B2 | The co-expressed N-motif and C-motif had significant kinase activity towards H2A.X | 
3 | B3 | the activity of a point mutant at C338 (C338A) was greatly diminished (<50 fold, FIG. 3F) | 
4 | B4 | the activity of the 1-340 amino acid construct was much reduced (<50 fold) in comparison to the other constructs | 
5 | B5 |  | in vitro kinase assay [1]: Full length recombinant WSTF proteins isolated from insect cells phosphorylated free H2A.X protein in the presence of Mn^2+; in vitro kinase assay (32P autoradiography) [1]: The recombinant full length WSTF protein phosphorylated H2A.X-containing nucleosomes; in vitro kinase assay (32P autoradiography) [2]: WSTF phosphorylated the WT but not Y142F H2A.X
